Measurements as given in US20120321619A1 (Bayer, published 2012).

T1: recombinant soluble murine C4.4a (mouse, UniProt Q91YK8 33-343, limits assumed)
T1 construct: also called mouse C4.4a; mC4.4a
T1 sequence (looked up): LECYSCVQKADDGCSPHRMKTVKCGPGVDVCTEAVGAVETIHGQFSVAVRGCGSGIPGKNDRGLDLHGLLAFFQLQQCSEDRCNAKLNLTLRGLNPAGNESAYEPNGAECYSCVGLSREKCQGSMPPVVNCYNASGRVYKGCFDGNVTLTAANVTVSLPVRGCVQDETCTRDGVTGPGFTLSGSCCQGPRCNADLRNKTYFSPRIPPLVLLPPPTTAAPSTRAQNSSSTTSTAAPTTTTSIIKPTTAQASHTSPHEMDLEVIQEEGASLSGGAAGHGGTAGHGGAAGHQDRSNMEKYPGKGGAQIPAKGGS

T2: recombinant soluble human C4.4a (human, UniProt O95274 31-308)
T2 construct: recombinant, soluble, purified protein; also called hC4.4a; full length C4.4a
T2 sequence: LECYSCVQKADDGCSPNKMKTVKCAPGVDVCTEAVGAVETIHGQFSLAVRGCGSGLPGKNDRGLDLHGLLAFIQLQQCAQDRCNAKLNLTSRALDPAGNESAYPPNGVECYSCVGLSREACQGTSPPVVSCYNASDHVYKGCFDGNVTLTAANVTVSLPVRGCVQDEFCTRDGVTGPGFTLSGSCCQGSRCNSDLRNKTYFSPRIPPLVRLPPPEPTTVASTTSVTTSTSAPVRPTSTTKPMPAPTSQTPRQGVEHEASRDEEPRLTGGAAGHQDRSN


Experiments:
[1] = molecular target: T1, recombinant soluble murine C4.4a; test: direct ELISA, Fab supernatant on coated mouse C4.4a, signal normalized to Fab quantity
Procedure: (§1) Cultures were diluted in 10% Smart Block in PBST and bound to the MTP plates for 1 h at 20° C. After washing with PBST, captured antibodies were incubated with a HRP-coupled anti-lambda antibody (Sigma, A5175) and detected by incubating the plate with 10 μM amplex red substrate (Invitrogen, A12222) for 30 minutes at 20° C. in the dark followed by fluorescence measurement. Determined quantification signals were checked to be in the dynamic range of an calibration series built up with concentrated parental Fab (M31-B01 or M20-D02-S-A) expression culture supernatant allowing a relative quantification of each individual Fab expression sample.
(§2) To determine the activity of the mutated Fab variants on recombinant soluble human or mouse C4.4a a direct ELISA assay format was used. Briefly, MTP plates (Nunc maxisorp black, 460518) were coated with 2 μg/ml either human or mouse C4.4a diluted in coating buffer (Candor Bioscience GmbH, 121125) and incubated for 15 h at 4° C. After washing 3 times with PBST, plates were blocked with 100% Smart Block (Candor Bioscience GmbH, 113500) for 1 h at 20° C. and the washing steps were repeated. For binding of the Fab antibody fragments 20 μl of culturing supernatants were added to the plates for 1 h at 20° C. followed by washing. In some cases the washing stringency was increased by an additional incubation step with 10% Smart Block in PBST for 90 min followed by washing 3 times with PBST (“process B” in Table 10b). Bound parental Fabs and variants were then detected by a HA-epitope tag specific antibody HRP conjugate (Bethyl, A190-108P). 10 μM amplex red substrate (Invitrogen, A12222) was added to the plates and the fluorescence signal was detected using a common fluorescence reader, e.g. Tecan Ultra. Quantity normalized affinity signals were calculated as ratios of background corrected affinity and quantification signals in the respective ELISA: (Signalaffinity−Backgroundaffinity)/(Signalquantity−Backgroundquantity). The resulting values correlate mainly with the affinity in a positive manner, whereas not normalized values correlate additionally with the concentration of the binding Fab in the sample.

[2] = molecular target: T2, recombinant soluble human C4.4a; test: direct ELISA, Fab supernatant on coated human C4.4a, signal normalized to Fab quantity
Procedure: as §1, §2

Binder | normalized affinity signal (average) [1] | normalized affinity signal (average) [2] | normalized affinity signal (median, process A) [1] | normalized affinity signal (median, process A) [2]
M31-B01 Fab LC W91F (Fab, V domains shown, Fab with 3×HA-tag and hexa-histidine tag at the C-terminus of the heavy chain, culture supernatant) VH: EVQLLESGGGLVQPGGSLRLSCAASGFTFSNAWMSWVRQAPGKGLEWVSYISSSGSTIYYADSVKGRFTISRDNSKNTLYLQMNSLRAEDTAVYYCAREGLWAFDYWGQGTLVTVTS VL: QSVLTQPPSASGTPGQRVTISCTGSSSNIGAGYVVHWYQQLPGTAPKLLIYDNNKRPSGVPDRFSGSKSGTSASLAISGLRSEDEADYYCAAFDDRLNGPVFGGGTKLTVLG | 2.53 | 4.3 | – | –
M31-B01 Fab LC W91Y (Fab, V domains shown, Fab with 3×HA-tag and hexa-histidine tag at the C-terminus of the heavy chain, culture supernatant) VH: EVQLLESGGGLVQPGGSLRLSCAASGFTFSNAWMSWVRQAPGKGLEWVSYISSSGSTIYYADSVKGRFTISRDNSKNTLYLQMNSLRAEDTAVYYCAREGLWAFDYWGQGTLVTVTS VL: QSVLTQPPSASGTPGQRVTISCTGSSSNIGAGYVVHWYQQLPGTAPKLLIYDNNKRPSGVPDRFSGSKSGTSASLAISGLRSEDEADYYCAAYDDRLNGPVFGGGTKLTVLG | 2.79 | 4.97 | – | –
wild-type Fab M20-D02 S-A (Fab, V domains shown, Fab with 3×HA-tag and hexa-histidine tag at the C-terminus of the heavy chain, E. coli culture supernatant; also called M20-D02 S-A (parental Fab)) VH: EVQLLESGGGLVQPGGSLRLSCAASGFTFSDYQMTWIRQTPGKGLEWVSGVSWNGARTHYADSVKGRFTISRDNSKNTLYLQMNSLRAEDTAVYYCAKGDYLVYSAYYFDSWGQGTLVTVTS VL: not shown | 0.01 | 0.04 | 0.04 | 0.15
M20-D02 S-A Fab LC A90Q (Fab, V domains shown, Fab with 3×HA-tag and hexa-histidine tag at the C-terminus of the heavy chain, culture supernatant) VH: EVQLLESGGGLVQPGGSLRLSCAASGFTFSDYQMTWIRQTPGKGLEWVSGVSWNGARTHYADSVKGRFTISRDNSKNTLYLQMNSLRAEDTAVYYCAKGDYLVYSAYYFDSWGQGTLVTVTS VL: not shown | 0.29 | 1.41 | – | –
M20-D02 S-A Fab HC D101K (Fab, V domains shown, Fab with 3×HA-tag and hexa-histidine tag at the C-terminus of the heavy chain, culture supernatant) VH: EVQLLESGGGLVQPGGSLRLSCAASGFTFSDYQMTWIRQTPGKGLEWVSGVSWNGARTHYADSVKGRFTISRDNSKNTLYLQMNSLRAEDTAVYYCAKGDYLVYSAYYFKSWGQGTLVTVTS VL: not shown | 0.21 | 1.65 | – | –
M20-D02 S-A Fab HC A100bS (Fab, V domains shown, Fab with 3×HA-tag and hexa-histidine tag at the C-terminus of the heavy chain, culture supernatant) VH: EVQLLESGGGLVQPGGSLRLSCAASGFTFSDYQMTWIRQTPGKGLEWVSGVSWNGARTHYADSVKGRFTISRDNSKNTLYLQMNSLRAEDTAVYYCAKGDYLVYSSYYFDSWGQGTLVTVTS VL: not shown | 0.02 | 0.34 | – | –
M20-D02 S-A Fab HC R56S (Fab, V domains shown, Fab with 3×HA-tag and hexa-histidine tag at the C-terminus of the heavy chain, culture supernatant) VH: EVQLLESGGGLVQPGGSLRLSCAASGFTFSDYQMTWIRQTPGKGLEWVSGVSWNGASTHYADSVKGRFTISRDNSKNTLYLQMNSLRAEDTAVYYCAKGDYLVYSAYYFDSWGQGTLVTVTS VL: not shown | – | – | 0.06 | 0.21
M20-D02 S-A Fab LC V97G (Fab, V domains shown, Fab with 3×HA-tag and hexa-histidine tag at the C-terminus of the heavy chain, culture supernatant) VH: EVQLLESGGGLVQPGGSLRLSCAASGFTFSDYQMTWIRQTPGKGLEWVSGVSWNGARTHYADSVKGRFTISRDNSKNTLYLQMNSLRAEDTAVYYCAKGDYLVYSAYYFDSWGQGTLVTVTS VL: not shown | 0.3 | 1.21 | – | –
M20-D02 S-A Fab HC S100aK (Fab, V domains shown, Fab with 3×HA-tag and hexa-histidine tag at the C-terminus of the heavy chain, culture supernatant) VH: EVQLLESGGGLVQPGGSLRLSCAASGFTFSDYQMTWIRQTPGKGLEWVSGVSWNGARTHYADSVKGRFTISRDNSKNTLYLQMNSLRAEDTAVYYCAKGDYLVYKAYYFDSWGQGTLVTVTS VL: not shown | 0.06 | 0.45 | – | –
M20-D02 S-A Fab LC V97A (Fab, V domains shown, Fab with 3×HA-tag and hexa-histidine tag at the C-terminus of the heavy chain, culture supernatant) VH: EVQLLESGGGLVQPGGSLRLSCAASGFTFSDYQMTWIRQTPGKGLEWVSGVSWNGARTHYADSVKGRFTISRDNSKNTLYLQMNSLRAEDTAVYYCAKGDYLVYSAYYFDSWGQGTLVTVTS VL: not shown | 0.52 | 1.32 | – | –
M20-D02 S-A Fab HC V51I (Fab, V domains shown, Fab with 3×HA-tag and hexa-histidine tag at the C-terminus of the heavy chain, culture supernatant) VH: EVQLLESGGGLVQPGGSLRLSCAASGFTFSDYQMTWIRQTPGKGLEWVSGISWNGARTHYADSVKGRFTISRDNSKNTLYLQMNSLRAEDTAVYYCAKGDYLVYSAYYFDSWGQGTLVTVTS VL: not shown | – | – | 0.16 | 0.52
M20-D02 S-A Fab HC A55G (Fab, V domains shown, Fab with 3×HA-tag and hexa-histidine tag at the C-terminus of the heavy chain, culture supernatant) VH: EVQLLESGGGLVQPGGSLRLSCAASGFTFSDYQMTWIRQTPGKGLEWVSGVSWNGGRTHYADSVKGRFTISRDNSKNTLYLQMNSLRAEDTAVYYCAKGDYLVYSAYYFDSWGQGTLVTVTS VL: not shown | – | – | 0.04 | 0.15
M20-D02 S-A Fab HC D101R (Fab, V domains shown, Fab with 3×HA-tag and hexa-histidine tag at the C-terminus of the heavy chain, culture supernatant) VH: EVQLLESGGGLVQPGGSLRLSCAASGFTFSDYQMTWIRQTPGKGLEWVSGVSWNGARTHYADSVKGRFTISRDNSKNTLYLQMNSLRAEDTAVYYCAKGDYLVYSAYYFRSWGQGTLVTVTS VL: not shown | 0.03 | 0.61 | – | –
M20-D02 S-A Fab HC A100bR (Fab, V domains shown, Fab with 3×HA-tag and hexa-histidine tag at the C-terminus of the heavy chain, culture supernatant) VH: EVQLLESGGGLVQPGGSLRLSCAASGFTFSDYQMTWIRQTPGKGLEWVSGVSWNGARTHYADSVKGRFTISRDNSKNTLYLQMNSLRAEDTAVYYCAKGDYLVYSRYYFDSWGQGTLVTVTS VL: not shown | 0.01 | 0.87 | – | –
M20-D02 S-A Fab LC A90R (Fab, V domains shown, Fab with 3×HA-tag and hexa-histidine tag at the C-terminus of the heavy chain, culture supernatant) VH: EVQLLESGGGLVQPGGSLRLSCAASGFTFSDYQMTWIRQTPGKGLEWVSGVSWNGARTHYADSVKGRFTISRDNSKNTLYLQMNSLRAEDTAVYYCAKGDYLVYSAYYFDSWGQGTLVTVTS VL: not shown | 0.17 | 0.94 | – | –
M20-D02 S-A Fab HC D101E (Fab, V domains shown, Fab with 3×HA-tag and hexa-histidine tag at the C-terminus of the heavy chain, culture supernatant) VH: EVQLLESGGGLVQPGGSLRLSCAASGFTFSDYQMTWIRQTPGKGLEWVSGVSWNGARTHYADSVKGRFTISRDNSKNTLYLQMNSLRAEDTAVYYCAKGDYLVYSAYYFESWGQGTLVTVTS VL: not shown | 0.05 | 0.31 | – | –
M20-D02 S-A Fab LC D92G (Fab, V domains shown, Fab with 3×HA-tag and hexa-histidine tag at the C-terminus of the heavy chain, culture supernatant) VH: EVQLLESGGGLVQPGGSLRLSCAASGFTFSDYQMTWIRQTPGKGLEWVSGVSWNGARTHYADSVKGRFTISRDNSKNTLYLQMNSLRAEDTAVYYCAKGDYLVYSAYYFDSWGQGTLVTVTS VL: not shown | 0.1 | 0.64 | – | –
M20-D02 S-A Fab HC S100aR (Fab, V domains shown, Fab with 3×HA-tag and hexa-histidine tag at the C-terminus of the heavy chain, culture supernatant) VH: EVQLLESGGGLVQPGGSLRLSCAASGFTFSDYQMTWIRQTPGKGLEWVSGVSWNGARTHYADSVKGRFTISRDNSKNTLYLQMNSLRAEDTAVYYCAKGDYLVYRAYYFDSWGQGTLVTVTS VL: not shown | 0.02 | 0.43 | – | –
